What was measured:
[1] = target: T1, rhesus CD137-human IgG1 Fc tagged protein (rhesus; human, UniProt F6W5G6 24-186); experiment: SPR (Biacore T200), single cycle kinetics, rhesus CD137-Fc captured on Protein G chip, 25 C, 1:1 fit; average ± SD
T1 construct: also called rhesus CD137Fc; rhesus CD137Fc recombinant protein
T1 sequence: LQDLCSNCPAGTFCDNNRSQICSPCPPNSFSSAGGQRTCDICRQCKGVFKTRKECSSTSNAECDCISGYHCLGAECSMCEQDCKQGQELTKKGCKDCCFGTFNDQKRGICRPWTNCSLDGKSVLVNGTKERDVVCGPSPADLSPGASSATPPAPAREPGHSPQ
Description: (§1) The Biacore T200 instrument was used to study the interaction between VH with human and rhesus CD137-human IgG1 Fc tagged protein by surface plasmon resonance (SPR). Single cycle kinetics assays used to evaluate the kinetics and affinity of the interaction. Experiments were performed at 25° C. in HBS-EP+ assay buffer with a flow rate of 30 μl/minute. A Protein G chip was used to capture the Fc tagged recombinant CD137 diluted to 2 μg/ml to one of the flow cells over 7 seconds. A second flow cell without any captured CD137 was used as the reference cell. A five point, three-fold dilution series of VH was made with a top concentration of 60 nM. The binding kinetics were followed by flowing these over the chip surface. The contact time for each of the binding steps was 180 seconds and the dissociation step was 1800 and 3600 seconds for rhesus and human CD137 respectively. After each run, the sensors were regenerated with glycine pH 1.5 to remove the captured CD137. The data was fitted to a 1:1 binding model after double reference subtraction using the Biacore T200 Evaluation software.

[2] = target: T2, cynomolgus PSMA expressed on CHO cells (cynomolgus, UniProt A0A2K5VNZ0 1-750); experiment: FMAT, CHO cynomolgus PSMA cells, detection with CD137huFc and anti human Fc-Alexa Fluor-488; n=3
T2 construct: whole, on cells; also called CHO cynomolgus PSMA cells

[3] = target: T3, human PSMA expressed on cells (human, UniProt Q04609 1-750); experiment: dual-binding cell ELISA: CHO-PSMA cells, bound construct detected with 1 nM CD137huFc and anti-huFc-HRP; average ± SD, n=3
T3 construct: Type II membrane glycoprotein; also called CHO human PSMA; CHO PSMA
Description: (§2) Dual target engagement of CD137 and PSMA by the bispecific molecules was assessed using an ELISA format and by flow cytometry with T cells. For ELISA, CHO-PSMA cells (20000/well) were seeded into 96 well plates (Greiner cat no. 353872) in Hams F12 supplemented with L-Glutamine+Blasticidin+Tetracycline and incubated at 37° C. with 5% CO₂ overnight. All subsequent steps were performed at room temperature and included washes with PBS between each step. Plates were blocked with PBS/0.1% BSA for 1 hour then serially diluted Humabody® VH were added and allowed to bind for 1 hour. Following removal of unbound VH, 1 nM CD137huFc (Acro Biosystems cat no. 41B-H5258) was added to the wells and incubated for 1 hour. A 1:3000 dilution of Anti-huFc-HRP (Jackson ImmunoResearch cat no. 109-035-098) was subsequently added for 1 hour and plates developed by addition of TMB. The reaction was stopped by addition of 0.5M sulphuric acid and plates read on BMG PheraStar at Absorbance 450 nm. […] Human CD8+ T cells pre-stimulated for 48 hours with PMA/ionomycin were washed with FACS buffer (PBS supplemented with 10% human serum and 0.05% sodium azide) by centrifugation. Serially diluted bispecific and trispecific Humabody VH construct were added to the cells for 1 hour on ice. Plates were washed with FACS buffer then detection mix containing 5 nM biotinylated-PSMA, 20 nM Streptavidin AlexaFluor488 and Live/Dead NearIR cell stain dilution added. Plates were incubated at 4° C. for 1 hour then washed twice with FACS buffer by centrifugation. Cells were fixed by addition 1× BD Cell fix solution, then washed twice with PBS by centrifugation and the cell pellets resuspended in PBS. Fluorescence was measured in the RL2-H channels (Live/Dead stain) and BL1-H channel (AlexaFluor488 stain) on the iQue Plus Screener (IntelliCyt). The bispecific and trispecific molecules were able to simultaneously bind human CD8+ T cells and PSMA protein.

[4] = target: T1, rhesus CD137-human IgG1 Fc tagged …; experiment: SPR (Biacore T200), single cycle kinetics, rhesus CD137-Fc captured on Protein G chip, 25 C, 1:1 fit
Description: as §1

[5] = target: T4, human CD137 expressed on cells (human, UniProt Q07011 24-255); experiment: dual-binding flow cytometry: pre-stimulated human CD8+ T cells, bound construct detected with 5 nM biotinylated-PSMA and streptavidin-AlexaFluor488; average ± SD, at least 6 donors
T4 construct: Whole entry with its signal peptide; also called 4-1BB; TNFRS9
Description: as §2, with “Serially diluted bispecific and trispecific Humabody VH construct were added to the cells for 1 hour on ice. Plates were washed with FACS buffer then detection mix containing 5 nM biotinylated-PSMA, 20 nM Streptavidin AlexaFluor488 and Live/Dead NearIR cell stain dilution added. Plates were incubated at 4° C. for 1 hour then washed twice with FACS buffer by centrifugation. Cells were fixed by addition 1× BD Cell fix solution, then washed twice with PBS by centrifugation and the cell pellets resuspended in PBS.” left out, “The bispecific and trispecific molecules were able to simultaneously bind human CD8+ T cells and PSMA protein.” left out

[6] = target: T5, human CD137-human Fc chimeric protein (Acro Biosystems cat no. 41B-H5258) (human, UniProt Q07011 24-186); experiment: dual binding cell based ELISA: serially diluted VH on plated CHO human PSMA cells, then 1 nM CD137huFc, detection with anti human Fc-HRP, absorbance 450 nm
T5 construct: Bought protein; also called CD137-Fc tag protein; CD137huFc; not shown: human IgG1 Fc
Description: Association 1—Binding of the trispecific molecule to CD137Fc captured on protein G biosensors. Association 2—binding of Human serum Albumin, Association 3—Binding of PSMA in the presence of Human serum albumin to minimise HSA dissociation. […] Dual target engagement of CD137 and PSMA by the bispecific molecules was assessed using an ELISA format and by flow cytometry with T cells. For ELISA, CHO-PSMA cells (20000/well) were seeded into 96 well plates (Greiner cat no. 353872) in Hams F12 supplemented with L-Glutamine+Blasticidin+Tetracycline and incubated at 37° C. with 5% CO₂ overnight. All subsequent steps were performed at room temperature and included washes with PBS between each step. Plates were blocked with PBS/0.1% BSA for 1 hour then serially diluted Humabody® VH were added and allowed to bind for 1 hour. Following removal of unbound VH, 1 nM CD137huFc (Acro Biosystems cat no. 41B-H5258) was added to the wells and incubated for 1 hour. A 1:3000 dilution of Anti-huFc-HRP (Jackson ImmunoResearch cat no. 109-035-098) was subsequently added for 1 hour and plates developed by addition of TMB. The reaction was stopped by addition of 0.5M sulphuric acid and plates read on BMG PheraStar at Absorbance 450 nm. […] Fluorescence was measured in the RL2-H channels (Live/Dead stain) and BL1-H channel (AlexaFluor488 stain) on the iQue Plus Screener (IntelliCyt). […]

T3 sequence (Q04609 whole entry): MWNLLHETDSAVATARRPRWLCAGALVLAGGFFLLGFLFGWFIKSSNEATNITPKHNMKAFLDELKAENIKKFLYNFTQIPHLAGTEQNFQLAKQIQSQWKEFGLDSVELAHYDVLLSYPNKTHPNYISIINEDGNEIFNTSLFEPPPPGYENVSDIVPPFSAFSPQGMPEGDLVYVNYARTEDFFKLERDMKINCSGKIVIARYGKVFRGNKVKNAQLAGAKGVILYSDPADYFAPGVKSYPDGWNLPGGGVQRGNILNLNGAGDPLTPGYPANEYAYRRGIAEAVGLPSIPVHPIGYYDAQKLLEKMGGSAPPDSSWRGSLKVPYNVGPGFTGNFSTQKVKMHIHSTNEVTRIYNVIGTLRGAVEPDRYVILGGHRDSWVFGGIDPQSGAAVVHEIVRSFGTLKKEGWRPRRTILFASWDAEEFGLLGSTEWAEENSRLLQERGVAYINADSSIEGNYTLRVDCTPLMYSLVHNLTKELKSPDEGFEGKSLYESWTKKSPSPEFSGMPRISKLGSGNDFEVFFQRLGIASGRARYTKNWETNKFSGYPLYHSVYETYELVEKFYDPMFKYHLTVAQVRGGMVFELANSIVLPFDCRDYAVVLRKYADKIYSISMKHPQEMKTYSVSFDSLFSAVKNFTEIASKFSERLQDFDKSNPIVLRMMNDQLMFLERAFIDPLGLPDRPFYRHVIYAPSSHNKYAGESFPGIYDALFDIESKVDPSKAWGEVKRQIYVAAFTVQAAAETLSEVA
T4 sequence (Q07011 24-255 limits assumed): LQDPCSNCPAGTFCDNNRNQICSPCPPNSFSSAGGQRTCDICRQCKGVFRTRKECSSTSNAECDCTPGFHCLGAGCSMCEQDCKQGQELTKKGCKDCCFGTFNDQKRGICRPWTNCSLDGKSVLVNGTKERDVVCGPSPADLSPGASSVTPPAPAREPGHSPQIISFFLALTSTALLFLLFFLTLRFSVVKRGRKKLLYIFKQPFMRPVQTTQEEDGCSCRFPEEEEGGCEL

B1: Humabody 1.113 (VHH)
VHH: EVQLVESGGGLVQPGGSLRLSCAASGFTLSNYWMNWVRQAPGKGLEWVANINQDGSERYYVDSVKGRFTISRDNAKNSLYLQMNSLRAEDTAVYYCARGGEGYGVDHYGLDVSGQGTTVTVSS
Question: How did the Kd [1] turn out when B1 was run?
Answer: 270 pM

Question: What about the koff [1] of the same binder?
Answer: 0.00028 s⁻¹

Question: And the kon [1]?
Answer: 1.1e+06 M⁻¹ s⁻¹

B2: 4.1-6GS-1.113-6GS-VH (HSA)-4GS (bispecific antibody)
chain: EVQLVESGGGVVQPGRSLRLSCAASGFSFSGYGMHWVRQAPGKGLEWVAYISYDGSNKYYADSVKGRFTISRDNSKNTLYLQMNSLRAEDTAVYYCAKDPAWGLRLGESSSYDFDIWGQGTMVTVSSGGGGSGGGGSGGGGSGGGGSGGGGSGGGGSEVQLVESGGGLVQPGGSLRLSCAASGFTLSNYWMNWVRQAPGKGLEWVANINQDGSERYYVDSVKGRFTISRDNAKNSLYLQMNSLRAEDTAVYYCARGGEGYGVDHYGLDVSGQGTTVTVSSGGGGSGGGGSGGGGSGGGGSGGGGSGGGGSEVQLVESGGGLVQPGRSLRLSCAASGFTFHHYAMHWVRQAPGKGLEWVSGISWNGNKITYADSVKGRFTISRDNAKNSLYLQMNSLRAEDTALYYCVRDSSLFIVGAPTFEHWGRGTLVTVSSGGGGSGGGGSGGGGSGGGGS
notes: Trispecific single-chain fusion of three VH domains (PSMA, CD137, human serum albumin)
Question: Which EC50 [2] does the source give for B2 here?
Answer: 570 pM

Question: What about the EC50 [3] of the same binder?
Answer: 2200 pM

Question: And the Kd [4]?
Answer: 120 pM

Question: What about the koff [4] of the same binder?
Answer: 5.2e-05 s⁻¹

Question: What about the kon [4] of the same binder?
Answer: 440000 M⁻¹ s⁻¹

B3: 4.1-6GS-1.113 (bispecific antibody)
chain: EVQLVESGGGVVQPGRSLRLSCAASGFSFSGYGMHWVRQAPGKGLEWVAYISYDGSNKYYADSVKGRFTISRDNSKNTLYLQMNSLRAEDTAVYYCAKDPAWGLRLGESSSYDFDIWGQGTMVTVSSGGGGSGGGGSGGGGSGGGGSGGGGSGGGGSEVQLVESGGGLVQPGGSLRLSCAASGFTLSNYWMNWVRQAPGKGLEWVANINQDGSERYYVDSVKGRFTISRDNAKNSLYLQMNSLRAEDTAVYYCARGGEGYGVDHYGLDVSGQGTTVTVSS
notes: the tested construct may be that one
Question: Which EC50 [5] does the source give for B3 here?
Answer: 1300 pM

Question: What about the EC50 [3] of the same binder?
Answer: 570 pM

B4: Humabody VH 4.1 (VHH)
VHH: EVQLVESGGGVVQPGRSLRLSCAASGFSFSGYGMHWVRQAPGKGLEWVAYISYDGSNKYYADSVKGRFTISRDNSKNTLYLQMNSLRAEDTAVYYCAKDPAWGLRLGESSSYDFDIWGQGTMVTVSS
Question: Does B4 bind [6]?
Answer: no binding (tested: 1e-7 M (log10 -7))

B5: 4.1-6GS-VH HSA 6GS-1.113-4GS (bispecific antibody)
chain: EVQLVESGGGVVQPGRSLRLSCAASGFSFSGYGMHWVRQAPGKGLEWVAYISYDGSNKYYADSVKGRFTISRDNSKNTLYLQMNSLRAEDTAVYYCAKDPAWGLRLGESSSYDFDIWGQGTMVTVSSGGGGSGGGGSGGGGSGGGGSGGGGSGGGGSEVQLVESGGGLVQPGRSLRLSCAASGFTFHHYAMHWVRQAPGKGLEWVSGISWNGNKITYADSVKGRFTISRDNAKNSLYLQMNSLRAEDTALYYCVRDSSLFIVGAPTFEHWGRGTLVTVSSGGGGSGGGGSGGGGSGGGGSGGGGSGGGGSEVQLVESGGGLVQPGGSLRLSCAASGFTLSNYWMNWVRQAPGKGLEWVANINQDGSERYYVDSVKGRFTISRDNAKNSLYLQMNSLRAEDTAVYYCARGGEGYGVDHYGLDVSGQGTTVTVSSGGGGSGGGGSGGGGSGGGGS
notes: Trispecific single-chain fusion of three VH domains (PSMA, human serum albumin, CD137)
Question: For B5, which EC50 [3] is on record?
Answer: 1100 pM
